Assay [1] concerns the target unlabeled double-repeat CTD-Ser2P/Ser5P peptide (S. cerevisiae). The assay can be described thus: fluorescence polarisation.
Assay [2] has as its target unlabeled double-repeat CTD-Ser5P peptide (S. cerevisiae). Briefly: fluorescence polarisation. A general note: In fluorescence polarisation assays a small probe gives low polarisation when free and higher when bound to something large.
A further assay addresses T1, Nrd1_(6–151) wild-type (S. cerevisiae, UniProt P53617 6-151).
T1 sequence: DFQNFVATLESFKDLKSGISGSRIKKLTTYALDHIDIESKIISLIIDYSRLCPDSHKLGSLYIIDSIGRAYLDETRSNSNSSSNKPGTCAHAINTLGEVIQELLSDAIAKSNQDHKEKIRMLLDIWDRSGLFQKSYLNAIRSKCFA
The assay can be described thus: fluorescence polarisation.

For the next assay, the target named is T2, Nrd1_(6–151) K21D (S. cerevisiae, UniProt P53617 6-151, K21D).
T2 sequence: T1 sequence with K16D
The assay can be described thus: fluorescence polarisation.

The target of another assay is T3, Nrd1_(6–151) K21P (S. cerevisiae, UniProt P53617 6-151, K21P).
T3 sequence: T1 sequence with K16P
Briefly: fluorescence polarisation.

Another assay addresses T4, Nrd1_(6–151) S22D (S. cerevisiae, UniProt P53617 6-151, S22D).
T4 sequence: T1 sequence with S17D
Briefly: fluorescence polarisation.

The next assay concerns the target T5, Nrd1_(6–151) L20D (S. cerevisiae, UniProt P53617 6-151, L20D).
T5 sequence: T1 sequence with L15D
The assay can be described thus: fluorescence polarisation.

The target in a further assay is T6, Nrd1_(6–151) I130R (S. cerevisiae, UniProt P53617 6-151, I130R).
T6 sequence: T1 sequence with I125R
The assay can be described thus: fluorescence polarisation.

Another assay deals with T7, Nrd1_(6–224) (S. cerevisiae, UniProt P53617 6-224).
T7 sequence: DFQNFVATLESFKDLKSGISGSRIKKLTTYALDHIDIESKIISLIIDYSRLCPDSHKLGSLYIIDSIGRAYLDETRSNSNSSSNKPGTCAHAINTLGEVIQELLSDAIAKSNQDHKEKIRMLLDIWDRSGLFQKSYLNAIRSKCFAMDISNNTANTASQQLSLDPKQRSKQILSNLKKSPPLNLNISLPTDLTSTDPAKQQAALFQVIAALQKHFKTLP
Briefly: ITC. (In general: In ITC the heat of successive injections is recorded.)

Another assay has as its system Pol II. Type of assay: binding, S. cerevisiae. The following applies: whole-cell extracts, IgG purification, anti-CTD Ser5P (H14) immunoblot.
Another assay concerns CTD. Briefly: CTD binding of Nrd1 variants. The following applies: point mutants: fluorescence anisotropy, Table 1; deletions: data not shown.

Numbering of substitutions follows the chain as printed. In names and notes the source's numbering stands. Where no end group is shown, it is not given here. [ ]: non-standard residue; d: D form. pS = N[C@@H](COP(=O)(O)O)C(=O)O

As a reminder, the Kd is the equilibrium constant for the complex coming apart. Consider “Nrd1_(6–151) wild-type (from UniProt P53617 6-151) (domain or fragment)”, for which the Kd worked out at 16 µM in assay [1] and 40 µM in assay [2].

As to “Nrd1_(6–151) L20D (from UniProt P53617 6-151) (domain or fragment)”, the Kd in assay [1] was determined as 19 µM.

In assay [2], “Nrd1_(6–214) wild-type (from UniProt P53617 6-214) (domain or fragment)” yielded a Kd of 48 µM.

B1: unlabeled double-repeat CTD-Ser2P peptide (peptide)
chain: Y[pS]PTSPSY[pS]PTSPS
Take B1: the Kd with Nrd1_(6–151) wild-type was 390 µM; with Nrd1_(6–151) K21D it was 610 µM; with Nrd1_(6–151) K21P, 380 µM; with Nrd1_(6–151) S22D, 470 µM; with Nrd1_(6–151) L20D, 560 µM; with Nrd1_(6–151) I130R, 550 µM.

B2: Nab3_(204–248) (domain or fragment)
chain: ENVNYDLLQKQVKYIMDSNMLNLPQFQHLPQEEKMSAILAMLNSN
As usually defined, the stoichiometry N is a count of units in the complex or per binding partner. On to B2, for which, in the assay with Nrd1_(6–224), the Kd worked out at 0.16 µM and the “stoichiometry N” value is 1.

B3: Nrd1Δ6–150 (protein)
chain: MQQDDAMDISNNTANTASQQLSLDPKQRSKQILSNLKKSPPLNLNISLPTDLTSTDPAKQQAALFQVIAALQKHFKTLPSHTSVGTVAPPQAHTITEYGSRRERERERERYNSRRNRSRSPPAPFSQPSTGRKDRYPSVAQDQYSIGAPNTTFGTNNHHLYPDELNVSNNPHYRPKPVSYDSTLPPDHIKVYSRTLFIGGVPLNMKEWDLANVLKPFAEVQSVILNNSRKHAFVKVYSRHEAENVLQNFNKDGALPLRTRWGVGFGPRDCCDYQHGYSIIPMHRLTDADKKWSVSAQWGGTSGQPLVTGIVFEEPDIIVGEGVSSKAISQKMPTDSGRNGPRSGKPNKSGSISSISPVPYGNAPLASPPPQQYVQPMMQQPYGYAPNQPLPSQGPAAAAPPVPQQQFDPTAQLNSLMNMLNQQQQQQQQS
modifications: left off: TAP (with Protein A module), end not stated, kept
As for B3, the “Association with Pol II” value in the assay on Pol II is “greatly reduced association with Pol II”.

B4: Nrd1Δ151–214 (protein)
chain: MQQDDDFQNFVATLESFKDLKSGISGSRIKKLTTYALDHIDIESKIISLIIDYSRLCPDSHKLGSLYIIDSIGRAYLDETRSNSNSSSNKPGTCAHAINTLGEVIQELLSDAIAKSNQDHKEKIRMLLDIWDRSGLFQKSYLNAIRSKCFALQKHFKTLPSHTSVGTVAPPQAHTITEYGSRRERERERERYNSRRNRSRSPPAPFSQPSTGRKDRYPSVAQDQYSIGAPNTTFGTNNHHLYPDELNVSNNPHYRPKPVSYDSTLPPDHIKVYSRTLFIGGVPLNMKEWDLANVLKPFAEVQSVILNNSRKHAFVKVYSRHEAENVLQNFNKDGALPLRTRWGVGFGPRDCCDYQHGYSIIPMHRLTDADKKWSVSAQWGGTSGQPLVTGIVFEEPDIIVGEGVSSKAISQKMPTDSGRNGPRSGKPNKSGSISSISPVPYGNAPLASPPPQQYVQPMMQQPYGYAPNQPLPSQGPAAAAPPVPQQQFDPTAQLNSLMNMLNQQQQQQQQS
modifications: left off: TAP (with Protein A module), end not stated, kept
B4: the “Association with Pol II” value in the assay on Pol II is recorded as “greatly reduced association with Pol II”.

B5: Nrd1_307–560: containing only the RNA binding region and the C-terminal region (protein)
chain: PDELNVSNNPHYRPKPVSYDSTLPPDHIKVYSRTLFIGGVPLNMKEWDLANVLKPFAEVQSVILNNSRKHAFVKVYSRHEAENVLQNFNKDGALPLRTRWGVGFGPRDCCDYQHGYSIIPMHRLTDADKKWSVSAQWGGTSGQPLVTGIVFEEPDIIVGEGVSSKAISQKMPTDSGRNGPRSGKPNKSGSISSISPVPYGNAPLASPPPQQYVQPMMQQPYGYAPNQPLPSQGPAAAAPPVPQQQFDPTAQLNS
On to B5, for which, in the assay with CTD, the “CTD binding of Nrd1 variant” value is recorded as “no CTD binding”.

B6: Nrd1_(6–151) K21P (domain or fragment)
chain: T1 sequence with K16P
Regarding B6, the Kd in assay [1] is 48 µM; in assay [2] it was 70 µM.

B7: Nrd1_(6–151) K21D (domain or fragment)
chain: T1 sequence with K16D
Turning to B7, the results for the dissociation constant Kd in assay [1] and in assay [2] were 70 µM and 95 µM, respectively.

B8: Nrd1_(6–151) S22D (domain or fragment)
chain: T1 sequence with S17D
Consider B8, for which the Kd in [1] amounted to 100 µM; in assay [2] it was 140 µM.

B9: Nrd1_(6–151) D70R (domain or fragment)
chain: T1 sequence with D65R
On to B9, for which the results for the Kd in [1] and in [2] were 100 µM and 680 µM, respectively.

B10: Nrd1_(6–151) I130R (domain or fragment)
chain: T1 sequence with I125R
For the molecule B10, the Kd came out at 27 µM in assay [1] and 215 µM in [2].
